In paper PMC4872106, “The evolutionary pathway from a biologically inactive polypeptide sequence to a folded, active structural mimic of DNA” (Nucleic Acids Research, 2016):

How the values were obtained:
[1] = target: T1, M.EcoKI (the M2S1 methyltransferase core of the EcoKI Type I RM enzyme) (E. coli, UniProt P08957 1-529; P05719 1-464); assay: ITC; as described in ref. 15 but in 20 mM HEPES buffer, pH 7.0; heat of interaction plotted against the molar ratio of Ocr dimer to M.EcoKI; conditions: both partners purified
T1 construct: M subunit (HsdM) of the Type I restriction/modification enzyme EcoKI of E. coli; S subunit (HsdS) of the Type I restriction/modification enzyme EcoKI of E. coli; In the in vivo antimodification assay M.EcoKI is endogenous in E. coli NM1057; also called M2S1 complex; copies: 2 + 1
T1 sequence 1: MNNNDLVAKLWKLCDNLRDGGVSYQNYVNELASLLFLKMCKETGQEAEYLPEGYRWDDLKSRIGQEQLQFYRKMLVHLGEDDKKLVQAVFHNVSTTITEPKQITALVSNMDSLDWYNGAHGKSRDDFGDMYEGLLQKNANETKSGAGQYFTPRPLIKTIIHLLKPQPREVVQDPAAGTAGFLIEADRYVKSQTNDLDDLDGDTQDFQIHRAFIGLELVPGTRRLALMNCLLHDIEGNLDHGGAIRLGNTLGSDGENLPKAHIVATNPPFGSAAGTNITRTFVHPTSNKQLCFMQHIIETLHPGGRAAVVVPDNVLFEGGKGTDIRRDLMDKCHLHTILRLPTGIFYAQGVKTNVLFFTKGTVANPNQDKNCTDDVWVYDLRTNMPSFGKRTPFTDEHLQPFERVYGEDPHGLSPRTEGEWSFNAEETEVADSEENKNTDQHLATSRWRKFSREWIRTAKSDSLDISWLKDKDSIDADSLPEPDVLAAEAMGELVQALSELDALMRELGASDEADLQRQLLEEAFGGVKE
T1 sequence 2: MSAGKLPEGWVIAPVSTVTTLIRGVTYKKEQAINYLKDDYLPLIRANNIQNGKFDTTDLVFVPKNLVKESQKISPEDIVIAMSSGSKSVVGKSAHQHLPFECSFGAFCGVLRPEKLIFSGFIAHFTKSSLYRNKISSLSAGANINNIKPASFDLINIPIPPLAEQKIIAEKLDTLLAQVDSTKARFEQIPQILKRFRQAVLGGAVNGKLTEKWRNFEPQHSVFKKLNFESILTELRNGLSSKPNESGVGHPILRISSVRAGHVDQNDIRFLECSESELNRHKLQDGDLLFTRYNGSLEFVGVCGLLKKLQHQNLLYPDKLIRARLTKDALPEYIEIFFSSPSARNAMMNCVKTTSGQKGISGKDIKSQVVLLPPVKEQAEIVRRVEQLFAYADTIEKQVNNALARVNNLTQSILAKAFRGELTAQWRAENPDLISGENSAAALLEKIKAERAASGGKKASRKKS

[2] = target: T1, M.EcoKI (the M2S1 methyltransferase …); assay: cell-based or functional assay
[3] = target: EcoKI Type I restriction/modification enzyme (R2M2S1) (E. coli, UniProt P08956 1-1170; P08957 1-529; P05719 1-464); assay: cell-based or functional assay
Sequence of EcoKI Type I restriction/modification enzyme (R2M2S1) (P08956 whole entry, one chain of several): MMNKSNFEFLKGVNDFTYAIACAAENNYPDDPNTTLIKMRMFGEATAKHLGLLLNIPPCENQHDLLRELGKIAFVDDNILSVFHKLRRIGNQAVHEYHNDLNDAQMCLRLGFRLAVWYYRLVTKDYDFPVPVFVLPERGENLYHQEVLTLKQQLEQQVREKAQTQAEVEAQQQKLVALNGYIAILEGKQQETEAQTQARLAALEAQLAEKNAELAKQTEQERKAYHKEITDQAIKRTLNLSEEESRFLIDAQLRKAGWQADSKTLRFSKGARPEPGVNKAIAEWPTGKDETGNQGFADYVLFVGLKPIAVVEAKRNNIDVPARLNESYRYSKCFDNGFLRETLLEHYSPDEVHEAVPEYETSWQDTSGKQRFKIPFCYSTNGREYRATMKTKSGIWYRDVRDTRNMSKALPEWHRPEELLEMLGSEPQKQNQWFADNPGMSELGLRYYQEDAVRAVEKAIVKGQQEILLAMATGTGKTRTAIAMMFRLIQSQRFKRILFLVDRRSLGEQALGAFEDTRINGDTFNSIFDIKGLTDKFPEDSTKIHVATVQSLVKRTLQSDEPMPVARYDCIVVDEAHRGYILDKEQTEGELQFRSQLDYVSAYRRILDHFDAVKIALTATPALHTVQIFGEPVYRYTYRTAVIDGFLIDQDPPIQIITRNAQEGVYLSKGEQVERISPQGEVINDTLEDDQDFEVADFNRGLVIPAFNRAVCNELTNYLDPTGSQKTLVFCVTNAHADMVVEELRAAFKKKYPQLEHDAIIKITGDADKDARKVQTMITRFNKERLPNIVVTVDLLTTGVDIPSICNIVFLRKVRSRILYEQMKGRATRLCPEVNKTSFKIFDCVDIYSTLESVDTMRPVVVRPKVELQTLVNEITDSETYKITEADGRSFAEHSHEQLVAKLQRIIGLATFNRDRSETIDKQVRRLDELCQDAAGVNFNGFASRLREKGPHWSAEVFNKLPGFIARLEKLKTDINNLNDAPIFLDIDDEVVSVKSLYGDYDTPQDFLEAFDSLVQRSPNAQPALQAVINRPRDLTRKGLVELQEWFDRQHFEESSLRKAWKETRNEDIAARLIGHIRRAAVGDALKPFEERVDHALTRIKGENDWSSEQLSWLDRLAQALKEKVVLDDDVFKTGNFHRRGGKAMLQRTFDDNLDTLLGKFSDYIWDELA

B1: Ocr (overcome classical restriction) from bacteriophage T7, wild type (natural protein, UniProt P03775 1-117, looked up)
chain: MAMSNMTYNNVFDHAYEMLKENIRYDDIRDTDDLHDAIHMAADNAVPHYYADIFSVMASEGIDLEFEDSGLMPDTKDVIRILQARIYEQLTIDLWEDAEDLLNEYLEEVEEYEEDEE
notes: Ocr, product of bacteriophage T7 gene 0.3; homodimer of a polypeptide of 116 amino acids (34 acidic and 6 basic residues per monomer); also called wild-type Ocr; gene 0.3 protein
stoichiometry N [1]: 1 Ocr dimer per M.EcoKI
in vivo antimodification: efficiency of plating on E. coli NM1041 (r+m+) relative to NM1057 (r-m+) of phage lambda v.o recovered from NM1057 expressing Ocr (vector alone 1) [2]: 0.00014 eop
in vivo antirestriction: efficiency of plating of phage lambda v.o on E. coli NM1049(DE3) (r+m+, EcoKI) relative to NM1261(DE3) (r-m-), strains expressing Ocr (vector alone 5x10^-5) [3]: 4 eop
